The target in this experiment is GLP-1 receptor (UniProt P43220). The experiment can be described thus: cell-based or functional assay.

This is an account of results in patent publication US20220298214A1.

Sequence of GLP-1 receptor (P43220 24-463 limits assumed): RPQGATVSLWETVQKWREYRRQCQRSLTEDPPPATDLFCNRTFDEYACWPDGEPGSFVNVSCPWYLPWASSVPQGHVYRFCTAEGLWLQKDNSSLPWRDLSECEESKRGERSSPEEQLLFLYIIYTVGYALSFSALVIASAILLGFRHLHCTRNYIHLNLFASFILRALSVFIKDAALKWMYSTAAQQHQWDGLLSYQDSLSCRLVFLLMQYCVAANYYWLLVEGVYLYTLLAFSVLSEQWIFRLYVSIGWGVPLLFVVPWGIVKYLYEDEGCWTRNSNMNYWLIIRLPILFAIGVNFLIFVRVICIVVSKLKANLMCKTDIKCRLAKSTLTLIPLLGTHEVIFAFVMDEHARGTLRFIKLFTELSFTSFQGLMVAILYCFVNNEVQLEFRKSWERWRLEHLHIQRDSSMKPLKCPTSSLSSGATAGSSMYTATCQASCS

Take Dulaglutide (Fc fusion): the EC50 value (pM), luciferase reporter gene (CRE-Luc) in HEK293-GLP1R-CRE-Luc cells was found to be 41.2 pM.
